# IntAct's records for PubMed 22266823
# B1: Fanconi anemia core complex-associated protein 20 (Homo sapiens), Q6NZ36-1 (parent)
# chain: MEAARRPRLGLSRRRPRPAGGPSGGRPWFLLGGDERERLWAELLRTVSPELILDHEVPSLPAFPGQEPRCGPEPTEVFTVGPKTFSWTPFPPDLWGPGRSYRLLHGAGGHLESPARSLPQRPAPDPCRAPRVEQQPSVEGAAALRSCPMCQKEFAPRLTQLDVDSHLAQCLAESTEDVTW
# partner: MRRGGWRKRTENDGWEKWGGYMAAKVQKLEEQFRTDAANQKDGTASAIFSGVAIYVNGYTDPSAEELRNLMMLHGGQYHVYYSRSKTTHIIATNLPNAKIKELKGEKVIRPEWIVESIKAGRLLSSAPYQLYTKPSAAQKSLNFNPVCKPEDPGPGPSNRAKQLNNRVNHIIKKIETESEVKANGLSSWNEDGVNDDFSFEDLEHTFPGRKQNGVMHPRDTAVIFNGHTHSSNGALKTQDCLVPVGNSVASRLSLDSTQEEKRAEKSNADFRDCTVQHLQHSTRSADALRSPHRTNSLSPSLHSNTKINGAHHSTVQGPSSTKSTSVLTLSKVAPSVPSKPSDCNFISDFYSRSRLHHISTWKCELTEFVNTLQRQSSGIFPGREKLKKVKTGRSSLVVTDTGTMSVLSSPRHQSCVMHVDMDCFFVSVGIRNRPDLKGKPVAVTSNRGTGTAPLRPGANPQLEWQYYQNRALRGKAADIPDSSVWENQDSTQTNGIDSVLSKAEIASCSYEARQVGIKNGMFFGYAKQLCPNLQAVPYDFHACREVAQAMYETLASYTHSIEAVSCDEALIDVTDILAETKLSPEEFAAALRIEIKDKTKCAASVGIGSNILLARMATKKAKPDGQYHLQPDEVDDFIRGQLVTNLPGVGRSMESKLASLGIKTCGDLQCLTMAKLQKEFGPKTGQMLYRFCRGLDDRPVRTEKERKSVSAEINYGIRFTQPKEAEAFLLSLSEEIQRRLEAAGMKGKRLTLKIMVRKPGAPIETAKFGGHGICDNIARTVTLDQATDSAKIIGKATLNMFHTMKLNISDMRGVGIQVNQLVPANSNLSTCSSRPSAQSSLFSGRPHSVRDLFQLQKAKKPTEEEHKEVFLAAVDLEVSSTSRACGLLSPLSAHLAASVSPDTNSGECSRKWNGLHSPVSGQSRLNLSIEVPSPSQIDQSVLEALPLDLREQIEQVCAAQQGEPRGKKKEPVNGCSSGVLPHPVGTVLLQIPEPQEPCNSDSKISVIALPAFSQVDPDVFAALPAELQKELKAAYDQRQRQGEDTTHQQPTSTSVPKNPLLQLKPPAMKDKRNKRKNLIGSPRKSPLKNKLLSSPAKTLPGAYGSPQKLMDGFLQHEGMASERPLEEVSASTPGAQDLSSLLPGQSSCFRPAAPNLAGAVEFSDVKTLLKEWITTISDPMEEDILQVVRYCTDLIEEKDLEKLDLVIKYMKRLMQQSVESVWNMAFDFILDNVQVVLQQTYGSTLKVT
# Variants of: B1
# Settings: with rev1_mouse Rev1, Q920Q2
row,effect of a mutation on the interaction,Variant
1,disrupting interaction strength,MEAARRPRLGLSRRRPRPAGGPSGGRPWFLLGGDERERLWAELLRTVSPELILDHEVPSLPAFPGQEPRCGPEPTEVFTVGPKTFSWTPFPPDLWGPGRSYRLLHGAGGHLESPARSLPQRPAPDPCRAPRVEQQPSVEGAAALRSAPMAQKEFAPRLTQLDVDSHLAQCLAESTEDVTW [C147A;C150A]
